# Measurements reported in IntAct's records for PubMed 36931259.
# B1: Kinesin-like protein KIF1C (Homo sapiens), O43896 (parent)
# chain: MAGASVKVAVRVRPFNARETSQDAKCVVSMQGNTTSIINPKQSKDAPKSFTFDYSYWSHTSTEDPQFASQQQVYRDIGEEMLLHAFEGYNVCIFAYGQTGAGKSYTMMGRQEPGQQGIVPQLCEDLFSRVSENQSAQLSYSVEVSYMEIYCERVRDLLNPKSRGSLRVREHPILGPYVQDLSKLAVTSYADIADLMDCGNKARTVAATNMNETSSRSHAVFTIVFTQRCHDQLTGLDSEKVSKISLVDLAGSERADSSGARGMRLKEGANINKSLTTLGKVISALADMQSKKRKSDFIPYRDSVLTWLLKENLGGNSRTAMIAALSPADINYEETLSTLRYADRTKQIRCNAIINEDPNARLIRELQEEVARLRELLMAQGLSASALEGLKTEEGSVRGALPAVSSPPAPVSPSSPTTHNGELEPSFSPNTESQIGPEEAMERLQETEKIIAELNETWEEKLRKTEALRMEREALLAEMGVAVREDGGTVGVFSPKKTPHLVNLNEDPLMSECLLYHIKDGVTRVGQVDMDIKLTGQFIREQHCLFRSIPQPDGEVVVTLEPCEGAETYVNGKLVTEPLVLKSGNRIVMGKNHVFRFNHPEQARLERERGVPPPPGPPSEPVDWNFAQKELLEQQGIDIKLEMEKRLQDLENQYRKEKEEADLLLEQQRLYADSDSGDDSDKRSCEESWRLISSLREQLPPTTVQTIVKRCGLPSSGKRRAPRRVYQIPQRRRLQGKDPRWATMADLKMQAVKEICYEVALADFRHGRAEIEALAALKMRELCRTYGKPDGPGDAWRAVARDVWDTVGEEEGGGAGSGGGSEEGARGAEVEDLRAHIDKLTGILQEVKLQNSSKDRELQALRDRMLRMERVIPLAQDHEDENEEGGEVPWAPPEGSEAAEEAAPSDRMPSARPPSPPLSSWERVSRLMEEDPAFRRGRLRWLKQEQLRLQGLQGSGGRGGGLRRPPARFVPPHDCKLRFPFKSNPQHRESWPGMGSGEAPTPLQPPEEVTPHPATPARRPPSPRRSHHPRRNSLDGGGRSRGAGSAQPEPQHFQPKKHNSYPQPPQPYPAQRPPGPRYPPYTTPPRMRRQRSAPDLKESGAAV
# partner: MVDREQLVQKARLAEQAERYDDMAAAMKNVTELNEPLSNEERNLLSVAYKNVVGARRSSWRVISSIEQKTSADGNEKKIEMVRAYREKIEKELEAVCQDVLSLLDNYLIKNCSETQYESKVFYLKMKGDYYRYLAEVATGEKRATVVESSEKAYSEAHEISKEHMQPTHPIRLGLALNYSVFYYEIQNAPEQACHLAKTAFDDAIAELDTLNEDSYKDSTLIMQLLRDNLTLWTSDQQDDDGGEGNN
# B2: Serine/threonine-protein kinase PAK 5 (Homo sapiens), Q9P286 (parent)
# chain: MFGKKKKKIEISGPSNFEHRVHTGFDPQEQKFTGLPQQWHSLLADTANRPKPMVDPSCITPIQLAPMKTIVRGNKPCKETSINGLLEDFDNISVTRSNSLRKESPPTPDQGASSHGPGHAEENGFITFSQYSSESDTTADYTTEKYREKSLYGDDLDPYYRGSHAAKQNGHVMKMKHGEAYYSEVKPLKSDFARFSADYHSHLDSLSKPSEYSDLKWEYQRASSSSPLDYSFQFTPSRTAGTSGCSKESLAYSESEWGPSLDDYDRRPKSSYLNQTSPQPTMRQRSRSGSGLQEPMMPFGASAFKTHPQGHSYNSYTYPRLSEPTMCIPKVDYDRAQMVLSPPLSGSDTYPRGPAKLPQSQSKSGYSSSSHQYPSGYHKATLYHHPSLQSSSQYISTASYLSSLSLSSSTYPPPSWGSSSDQQPSRVSHEQFRAALQLVVSPGDPREYLANFIKIGEGSTGIVCIATEKHTGKQVAVKKMDLRKQQRRELLFNEVVIMRDYHHDNVVDMYSSYLVGDELWVVMEFLEGGALTDIVTHTRMNEEQIATVCLSVLRALSYLHNQGVIHRDIKSDSILLTSDGRIKLSDFGFCAQVSKEVPKRKSLVGTPYWMAPEVISRLPYGTEVDIWSLGIMVIEMIDGEPPYFNEPPLQAMRRIRDSLPPRVKDLHKVSSVLRGFLDLMLVREPSQRATAQELLGHPFLKLAGPPSCIVPLMRQYRHH
# partner: B1 partner
# B3: Serine/arginine-rich splicing factor 10 (Homo sapiens), O75494 (parent)
# chain: MSRYLRPPNTSLFVRNVADDTRSEDLRREFGRYGPIVDVYVPLDFYTRRPRGFAYVQFEDVRDAEDALHNLDRKWICGRQIEIQFAQGDRKTPNQMKAKEGRNVYSSSRYDDYDRYRRSRSRSYERRRSRSRSFDYNYRRSYSPRNSRPTGRPRRSRSHSDNDRFKHRNRSFSRSKSNSRSRSKSQPKKEMKAKSRSRSASHTKTRGTSKTDSKTHYKSGSRYEKESRKKEPPRSKSQSRSQSRSRSKSRSRSWTSPKSSGH
# partner: B1 partner
# B4: 14-3-3 protein sigma (Homo sapiens), P31947 (parent)
# chain: MERASLIQKAKLAEQAERYEDMAAFMKGAVEKGEELSCEERNLLSVAYKNVVGGQRAAWRVLSSIEQKSNEEGSEEKGPEVREYREKVETELQGVCDTVLGLLDSHLIKEAGDAESRVFYLKMKGDYYRYLAEVATGDDKKRIIDSARSAYQEAMDISKKEMPPTNPIRLGLALNFSVFHYEIANSPEEAISLAKTTFDEAMADLHTLSEDSYKDSTLIMQLLRDNLTLWTADNAGEEGGEAPQEPQS
# partner: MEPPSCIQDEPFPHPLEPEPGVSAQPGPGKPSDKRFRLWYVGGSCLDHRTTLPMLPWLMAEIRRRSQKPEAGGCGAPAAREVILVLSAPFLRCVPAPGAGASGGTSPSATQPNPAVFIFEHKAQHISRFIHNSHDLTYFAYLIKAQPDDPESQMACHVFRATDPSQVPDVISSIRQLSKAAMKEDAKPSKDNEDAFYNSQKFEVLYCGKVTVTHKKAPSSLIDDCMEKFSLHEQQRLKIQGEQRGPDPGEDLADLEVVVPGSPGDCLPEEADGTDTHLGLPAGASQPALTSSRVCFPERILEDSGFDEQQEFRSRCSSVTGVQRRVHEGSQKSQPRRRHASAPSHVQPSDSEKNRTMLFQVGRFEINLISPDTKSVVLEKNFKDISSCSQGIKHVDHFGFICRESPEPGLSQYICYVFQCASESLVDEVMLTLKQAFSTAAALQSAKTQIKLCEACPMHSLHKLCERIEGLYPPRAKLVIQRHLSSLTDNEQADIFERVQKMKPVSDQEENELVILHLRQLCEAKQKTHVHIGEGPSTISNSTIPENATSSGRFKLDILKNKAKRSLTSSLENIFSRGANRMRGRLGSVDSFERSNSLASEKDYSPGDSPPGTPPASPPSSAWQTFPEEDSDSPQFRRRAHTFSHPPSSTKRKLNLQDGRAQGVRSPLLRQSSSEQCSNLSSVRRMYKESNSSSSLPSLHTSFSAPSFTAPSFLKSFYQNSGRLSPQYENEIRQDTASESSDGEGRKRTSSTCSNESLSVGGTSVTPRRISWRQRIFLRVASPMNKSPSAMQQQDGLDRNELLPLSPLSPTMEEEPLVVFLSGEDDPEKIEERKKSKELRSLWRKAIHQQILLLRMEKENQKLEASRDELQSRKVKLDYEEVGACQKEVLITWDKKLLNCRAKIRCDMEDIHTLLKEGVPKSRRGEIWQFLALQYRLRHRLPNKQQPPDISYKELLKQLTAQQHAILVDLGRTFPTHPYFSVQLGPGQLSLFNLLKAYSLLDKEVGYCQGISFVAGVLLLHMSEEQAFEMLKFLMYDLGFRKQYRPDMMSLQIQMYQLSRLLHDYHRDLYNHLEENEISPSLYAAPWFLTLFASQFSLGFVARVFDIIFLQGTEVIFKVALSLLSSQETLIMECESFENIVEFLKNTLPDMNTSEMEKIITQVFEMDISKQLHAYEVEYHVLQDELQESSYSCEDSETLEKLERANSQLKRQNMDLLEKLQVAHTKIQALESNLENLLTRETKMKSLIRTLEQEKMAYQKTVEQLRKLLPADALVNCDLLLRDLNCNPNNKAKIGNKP
# B5: 14-3-3 protein sigma (Homo sapiens), P31947 (parent)
# chain: B4 chain
# partner: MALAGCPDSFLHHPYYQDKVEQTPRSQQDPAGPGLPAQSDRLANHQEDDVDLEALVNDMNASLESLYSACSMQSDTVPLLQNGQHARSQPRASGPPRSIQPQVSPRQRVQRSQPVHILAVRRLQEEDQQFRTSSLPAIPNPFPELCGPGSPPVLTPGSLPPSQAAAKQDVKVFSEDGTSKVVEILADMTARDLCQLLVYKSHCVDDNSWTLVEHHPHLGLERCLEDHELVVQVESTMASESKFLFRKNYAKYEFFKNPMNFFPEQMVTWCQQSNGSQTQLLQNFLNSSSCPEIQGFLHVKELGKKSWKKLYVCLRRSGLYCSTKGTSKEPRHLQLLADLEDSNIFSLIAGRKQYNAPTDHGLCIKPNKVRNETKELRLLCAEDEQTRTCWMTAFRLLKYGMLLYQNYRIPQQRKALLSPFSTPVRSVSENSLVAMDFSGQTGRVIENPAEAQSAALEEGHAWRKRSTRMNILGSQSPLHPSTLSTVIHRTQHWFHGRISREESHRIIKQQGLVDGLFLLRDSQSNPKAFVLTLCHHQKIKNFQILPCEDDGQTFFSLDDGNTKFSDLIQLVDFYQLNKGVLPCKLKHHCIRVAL
# Variants of: B1
# Conditions: with 1433g_human YWHAG
row,Variant,effect of a mutation on the interaction
1,S915A;S1033A;S1092A,disrupting interaction strength

# Variants of: B2
# Conditions: with 1433g_human YWHAG
row,Variant,effect of a mutation on the interaction
1,S99A;S270A;S290A;T317A;T349A,decreasing interaction strength

# Variants of: B3
# Conditions: with 1433g_human YWHAG
row,Variant,effect of a mutation on the interaction
1,S121A;S123A;S131A;S133A;S143A;S158A;S160A;S199A;S201A;S249A;S253A;T255A,disrupting interaction strength

# Variants of: B4
# Conditions: with tbcd4_human TBC1D4, O60343
row,Variant,effect of a mutation on the interaction
1,MERASLIQKAKLAEQAERYEDMAAFMKGAVEKGEELSCEERNLLSVAYENVVGGQEAAWRVLSSIEQKSNEEGSEEKGPEVREYREKVETELQGVCDTVLGLLDSHLIKEAGDAESRVFYLKMKGDYYRYLAEVATGDDKKRIIDSARSAYQEAMDISKKEMPPTNPIRLGLALNFSDFHYEIANSPEEAISLAKTTFDEAMADLHTLSEDSYKDSTLIMQLLRDNLTLWTADNAGEEGGEAPQEPQS [K49E;R56E;V178D],decreasing interaction strength

# Variants of: B5
# Conditions: with grb10_human GRB10, Q13322
row,Variant,effect of a mutation on the interaction
1,MERASLIQKAKLAEQAERYEDMAAFMKGAVEKGEELSCEERNLLSVAYENVVGGQEAAWRVLSSIEQKSNEEGSEEKGPEVREYREKVETELQGVCDTVLGLLDSHLIKEAGDAESRVFYLKMKGDYYRYLAEVATGDDKKRIIDSARSAYQEAMDISKKEMPPTNPIRLGLALNFSDFHYEIANSPEEAISLAKTTFDEAMADLHTLSEDSYKDSTLIMQLLRDNLTLWTADNAGEEGGEAPQEPQS [K49E;R56E;V178D],decreasing interaction strength
